From article PMC8244302, “Shotgun EM of mycobacterial protein complexes during stationary phase stress” (Current Research in Structural Biology, 2020)

Tests used:
[1] = biological target: the molecule itself; test: negative stain EM single-particle reconstruction; partially fractionated late stationary phase Msm lysate (anion exchange or sucrose cushion, >100 kDa cut-off), 2% uranyl acetate, Relion 3.1; symmetry imposed from 2D classes; C3 symmetry for encapsulin with cargo
[2] = biological target: T1, Msm encapsulin (MSMEG_5830) (M. smegmatis (endogenous in Msm groELΔC), UniProt A0R4H0 1-265); test: as above; conditions: partners not purified
T1 construct: encapsulin of Mycobacterium smegmatis, locus MSMEG_5830; Reconstructed with icosahedral symmetry; also called complex 001; encapsulin nanocompartment; source: endogenous, M. smegmatis groELΔC late stationary phase lysate, partially fractionated (anion exchange, >100 kDa cut-off; gel filtration); also solubilised membrane fraction
T1 sequence (looked up): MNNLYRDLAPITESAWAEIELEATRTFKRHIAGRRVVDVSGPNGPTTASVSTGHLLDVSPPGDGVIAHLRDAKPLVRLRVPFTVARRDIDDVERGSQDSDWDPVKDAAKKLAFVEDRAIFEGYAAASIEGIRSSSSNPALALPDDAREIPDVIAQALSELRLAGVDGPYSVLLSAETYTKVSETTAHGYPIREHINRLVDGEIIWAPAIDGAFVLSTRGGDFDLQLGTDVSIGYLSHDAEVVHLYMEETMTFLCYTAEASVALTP

B1: Msm dye-decolourising type peroxidase (MSMEG_5829) (enzyme, M. smegmatis (endogenous in Msm groELΔC), UniProt A0R4G9 1-343, looked up)
chain: MPAPQPQPVLAPLTPAAVFLVATIDEGQEATVYDALPDISGLVRAIGFRDPAKRLSAITSIGSDAWDRLFSGPRPAELHPFREIDGGRHHAPATPGDLLFHLRAESMDVCFELATKLVEAMSGAITIVDETHGFRFFDNRDLMGFVDGTENPDGNLAVVATQIGDEDPDFAGGCYVHVQKYLHDMASWNSLSVEEQERVIGRTKLDDIELDDDVKPANSHVALNVIEDEDGNELKIIRHNMPFGEIGKGEFGTYYIGYSRTPSVTERMLDNMFIGDPPGNTDRILDFSTAITGGLFFTPTVDFLDDPPPLPSEDDRAEPASAPSADPVHTDGSLGIGSLKGTR
notes: dye-decolourising type peroxidase of Mycobacterium smegmatis, locus MSMEG_5829; Interpreted as a D3 hexamer from the cargo density in the C3 map; also called DyP; DyP type peroxidase; source: endogenous, M. smegmatis groELΔC late stationary phase lysate, partially fractionated, enclosed in encapsulin; also solubilised membrane fraction
stoichiometry N [1]: 6 subunits
stoichiometry N [2]: 10 encapsulin subunits per DyP subunit
